In PMC2845718 (2009):

Key:
Stingin-4 = experiment: SPR competition
Stingin-1 = experiment: SPR
Stingin-2 = experiment: SPR

| Binder | Kd (Stingin-4) | Kd (Stingin-1) | Kd (Stingin-2) |
| --- | --- | --- | --- |
| MDMX 24-108 (protein) INQVRPKLPLLKILHAAGAQGEMFTVKEVMHYLGQYIMVKQLYDQQEQHMVYCGGDLLGELLGRQSFSVKDPSPLYDMLRKNLVT | 252 nM | 11.4 nM | 18 nM |
| MDM2 25-109 (protein) ETLVRPKPLLLKLLKSVGAQKDTYTMKEVLFYLGQYIMTKRLYDEKQQHIVYCSNDLLGDLFGVPSFSVKEHRKIYTMIYRNLVV | – | 25.1 nM | 35.2 nM |
